Source: US20120122214A1

Target: bovine serum albumin (bovine) (UniProt P02769)
Experiment: flow cytometry; iPS-MP in suspension with control fluorescent particles coated with only albumin, 37° C., 90 minutes

Chain of bovine serum albumin (bovine) (P02769 25-607 limits assumed): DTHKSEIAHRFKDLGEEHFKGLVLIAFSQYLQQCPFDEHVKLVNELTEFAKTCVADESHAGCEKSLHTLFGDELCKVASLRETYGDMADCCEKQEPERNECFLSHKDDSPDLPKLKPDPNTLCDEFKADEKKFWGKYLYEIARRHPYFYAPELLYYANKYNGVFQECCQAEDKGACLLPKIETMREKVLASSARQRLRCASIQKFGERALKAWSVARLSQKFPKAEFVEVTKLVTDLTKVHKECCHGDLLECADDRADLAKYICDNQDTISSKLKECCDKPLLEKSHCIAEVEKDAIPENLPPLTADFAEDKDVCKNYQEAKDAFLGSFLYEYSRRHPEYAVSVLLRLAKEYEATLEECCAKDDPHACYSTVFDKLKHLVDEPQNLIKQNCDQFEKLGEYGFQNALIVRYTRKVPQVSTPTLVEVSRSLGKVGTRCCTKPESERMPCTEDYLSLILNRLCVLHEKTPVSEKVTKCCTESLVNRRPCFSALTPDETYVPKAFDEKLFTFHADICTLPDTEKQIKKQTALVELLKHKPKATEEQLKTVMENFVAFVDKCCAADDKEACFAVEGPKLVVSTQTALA

“single-chain antibody (scFv) recognizing human β-amyloid peptide, derived from mouse hybridoma clone 3D6, fused to mouse IgG2a Fc portion and mouse Fc receptor (FcγRI) trans-cell membrane-cytoplasm portion, expressed on iPS-MP” gave a mean fluorescence intensity of 781 and a percent of cells bound to the beads of 25.5%.
